Data reported in article PMC4674770, “Aβ-dependent reduction of NCAM2-mediated synaptic adhesion contributes to synapse loss in Alzheimer's disease” (Nature Communications, 2015).

Biological target: T1, Aβ1-42 peptide (Aβ1-42 oligomers, Aβ-derived diffusible ligands) (UniProt P05067 672-713)
T1 construct: amyloid-beta peptide 1-42, the cut product of the amyloid precursor protein APP; numbers count on: the Aβ peptide; Used as oligomers: by SDS-PAGE and western blot mainly tetramers (~18 kDa) with a minor monomer band (~4.5 kDa); also called synthetic Aβ_(1-42); source: bought: AbcamBiochemicals (synthetic Aβ1-42), prepared as Aβ-derived diffusible ligands
Test: ELISA; NCAM2-ED (25 nM) or BSA (25 nM) held on MaxiSorp 96-well plates coated with antibodies against the extracellular domain of NCAM2; Aβ1-42 7.8-250 nM in 0.05% Tween 20 and 0.1% BSA; bound Aβ1-42 detected with antibodies against Aβ1-42 and HRP-conjugated secondary antibodies
Conditions: both partners purified

B1: recombinant extracellular domain of NCAM2 (NCAM2-ED) (domain or fragment, mouse, UniProt O35136 20-698, looked up)
chain: LLQVTISLSKVELSVGESKFFTCTAIGEPESIDWYNPQGEKIISTQRVMLQKEGVRSRLTIYNANIEDAGIYRCQATDAKGQTQEATVVLEIYQKLTFREVVSPQEFKQGEDAEVVCRVSSSPAPAVSWLYHNEEVTTIPDNRFAVLANNNLQILNINKSDEGIYRCEGRVEARGEIDFRDIIVIVNVPPAIMMPQKSFNATAERGEEMTLTCKASGSPDPTISWFRNGKLIEENEKYILKGSNTELTVRNIINKDGGSYVCKATNKAGEDQKQAFLQVFVQPHILQLKNETTSENGHVTLVCEAEGEPVPEITWKRAIDGVMFSEGDKSPDGRIEVKGQHGRSSLHIRDVKLSDSGRYDCEAASRIGGHQRSMHLDIEYAPKFVSNQTMYYSWEGNPINISCDVTANPPASIHWRREKLLLPAKNTTHLKTHSVGRKMILEIAPTSDNDFGRYNCTATNRIGTRFQEYILELADVPSSPHGVKIIELSQTTAKISFNKPESHGGVPIHHYQVDVKEVASETWKIVRSHGVQTMVVLSSLEPNTTYEIRVAAVNGKGQGDYSKIEIFQTLPVREPSPPSIHGQPSSGKSFKISITKQDDGGAPILEYIVKYRSKDKEDQWLEKKVQGNKDHIILEHLQWTMGYEVQITAANRLGYSEPTVYEFSMPPKPNIIKDTLFNG
notes: signal peptide in the construct; neural cell adhesion molecule 2 (NCAM2, OCAM), mouse, extracellular domain, amino acids 1-698, amplified from a mouse brain cDNA library; About 100 kDa on gels; also called recombinant soluble extracellular domains of NCAM2; source: CHO cells (CHO-K1), stably transfected, secreted into the culture medium; purified (40% ammonia sulphate, desalted, …)
B1: binds.
